Measured values as given in patent US20170066830A1 (MERSANA THERAPEUTICS, published 2017).

Tests used:
[1] = biological target: T1, full-length human HER2 receptor on cells (human, UniProt P04626 23-1255); test: cell-based or functional assay
[2] = biological target: T1, full-length human HER2 receptor on cells; test: flow cytometry on JIMT-1 cells, Alexa Fluor 647 goat anti-human IgG detection
Method: The cell surface binding of the HER2 antibodies to JIMT-1 cells were evaluated using a Macsquant flow cytometer (Miltenyi Biotec, Bergisch Gladbach, Germany). JIMT-1 cells, grown overnight to approximately 90% confluent cultures in DMEM media (ATCC, Manassas, Va.) with 10% FBS (Gibco®, Life Technologies, Grand Island, N.Y.), were released from the plate surface by treatment with Accutase cell detachment solution (Innovative Cell Technologies, San Diego, Calif.). The detached cells were washed once with ice cold media containing 6% goat serum and resuspended in the same media. 100,000 cells were aliquoted per well of a V-bottom, 96-well plate and incubated with a range of HER2 antibody concentrations (0.05-100 nM) in 150 μl DMEM with 6% goat serum on ice for 3 hours. […] The cells were washed once with ice cold PBS (Gibco®, Life Technologies, Cat.# 10010049) and suspended in 200 μl of ice cold PBS with 1% paraformaldehyde. The amount of fluorescence bound per cell was determined by running 5000 cells for each treatment on the flow cytometer. The median fluorescence value for each treatment was graphed, and the dissociation constant, Kd, was calculated for each antibody with Graphpad Prism software by non-linear regression using the single site, specific binding model.

[3] = biological target: T1, full-length human HER2 receptor on cells; test: flow cytometry competition on JIMT-1 cells: unlabeled XMT 1519 titrated against 30 nM Alexa Fluor 647-labeled XMT 1519
[4] = biological target: recombinant human HER2 extracellular domain (amino acids 23-652, Acro Biosystems Cat.# HE2-H5225) (human, UniProt P04626 23-652); test: ELISA, HER2 extracellular domain coated on plate, one site specific binding fit
Method: (§1) The affinity of the antibodies for recombinant human and cynomolgus monkey HER2 was determined by an ELISA assay. […] The wells were washed 4 times with TTBS (50 mM Tris-HCl, pH 7.4, 150 mM NaCl, and 0.05% Tween 20). The wells were blocked by incubation with 50 μl of TTBS containing 5% bovine serum albumin for 1 hr. […] Unbound test antibodies were removed with TTBS washes (4×). […] Unbound secondary antibody was removed by 4 TTBS washes. The HRP substrate, TMB Bethyl Laboratories#E102) was added to each well and incubated until a yellow color was visible. The reaction was stopped by the addition of 50 μl of 0.2 N sulfuric acid. […] Kd was determined by non-linear regression using the one site, specific binding model.

[5] = biological target: T2, recombinant cynomolgus monkey HER2 extracellular domain (amino acids 1-652, Sino Biological Cat.# 90295-CO8H) (cynomolgus monkey, UniProt A0A2K5WUT7 1-622); test: as above
T2 construct: range 1-652; Bought protein; the stated range 1-652 includes the signal peptide of the construct
Method: as §1

[6] = biological target: T1, full-length human HER2 receptor on cells; test: cell-based or functional assay; remark: listed apart in the source
[7] = biological target: T1, full-length human HER2 receptor on cells; test: flow cytometry competition on JIMT-1 cells: unlabeled XMT 1518 titrated against 30 nM Alexa Fluor 647-labeled XMT 1519

B1: XMT 1519 antibody (antibody, human IgG1, kappa, V domains shown)
VH: EVQLVESGGGLVQPGGSLRLSCAASGFTFSSYSMNWVRQAPGKGLEWVSYISSSSSTIYYADSVKGRFTISRDNAKNSLYLQMNSLRAEDTAVYYCARGGHGYFDLWGRGTLVTVSS
VL: not shown
AKT phosphorylation in BT474 cells after 4 h antibody (western) [1]: 21 % of untreated cells
HER3 phosphorylation (Tyr 1289) in BT474 cells after 4 h antibody (western) [1]: 71 % of untreated cells
EC50 (read off the curve) [2]: ~1 nM
IC50 (read off the curve) [3]: ~5 nM

B2: Example 16H, XMT 1519-(EG2-MI-(10 kDa PHF-BA-(AF-HPA-Ala))) (antibody, human IgG1, kappa, V domains shown)
VH: EVQLVESGGGLVQPGGSLRLSCAASGFTFSSYSMNWVRQAPGKGLEWVSYISSSSSTIYYADSVKGRFTISRDNAKNSLYLQMNSLRAEDTAVYYCARGGHGYFDLWGRGTLVTVSS
VL: not shown
modifications: polymer-drug scaffolds on cysteine thiols possible; positions not given; EG2-MI-(10 kDa PHF-BA-(AF-HPA-Ala)) polymer-drug scaffolds joined to cysteine thiols of the partially reduced antibody; positions not given; DAR about 11.8:1 to about 17.5:1
Kd [4]: 0.05 nM
Kd [5]: 0.05 nM

B3: XMT 1520 antibody (antibody, human IgG1, kappa, V domains shown)
VH: EVQLVESGGGLVQPGGSLRLSCAASGFTFSGRSMNWVRQAPGKGLEWVSYISSDSRTIYYADSVKGRFTISRDNAKNSLYLQMNSLRAEDTAVYYCARGGHGYFDLWGRGTLVTVSS
VL: not shown
AKT phosphorylation in BT474 cells after 4 h antibody (western) [1]: 30 % of untreated cells
HER3 phosphorylation (Tyr 1289) in BT474 cells after 4 h antibody (western) [1]: 76 % of untreated cells
EC50 (read off the curve) [2]: ~1 nM

B4: XMT 1518 antibody (antibody, human IgG1, kappa, V domains shown)
VH: QVQLVESGGGVVQPGRSLRLSCAASGFTFSSYGMHWVRQAPGKGLEWVAGIWWDGSNEKYADSVKGRFTISRDNSKNTLYLQMNSLRAEDTAVYYCAKEAPYYAKDYMDVWGKGTTVTVSS
VL: EIVLTQSPGTLSLSPGERATLSCRASQSVSSDYLAWYQQKPGQAPRLLIYGASRRATGIPDRFSGSGSGTDFTLTISRLEPEDFAVYYCQQYVSYWTFGGGTKVEIKR
AKT phosphorylation in MCF7 cells after 4 h antibody [6]: 103 % of untreated cells
IC50 (read off the curve) [7]: ~3 nM
